Measured values taken from patent US20260242419A1, “A CYCLIC PEPTIDE FOR TRAPPING INTERLEUKIN-1 BETA” (Merck Sharp & Dohme LLC, priority 2023, published 2026).
Starred links: 1 amine or outer side, 2 acyl side, 3 side chain; linkers in the order of their positions; H or OH if unused. Non-standard residues stand in square brackets, D forms with d. dProc3Bn4Im4NMe = (2R,3S)-3-(4-(1-methyl-1H-imidazol-4-yl)benzyl)pyrrolidine-2-carboxylic acid, Cn1cnc(-c2ccc(C[C@H]3CCN([*:1])[C@H]3C(=O)[*:2])cc2)c1; dProc3Bn4Im2NMe = (2R,3S)-3-(4-(1-methyl-1H-imidazol-2-yl)benzyl)pyrrolidine-2-carboxylic acid, Cn1ccnc1-c1ccc(C[C@H]2CCN([*:1])[C@H]2C(=O)[*:2])cc1; dProc3CH2Pyrim = (2R,3S)-3-(pyrimidin-5-ylmethyl)pyrrolidine-2-carboxylic acid, O=C([C@H]1[C@@H](Cc2cncnc2)CCN1[*:1])[*:2]; TyrEtNAc = (2S)-3-[4-(2-acetamidoethoxy)phenyl]-2-amino-propanoic acid, CC(=O)NCCOc1ccc(C[C@H](N[*:1])C(=O)[*:2])cc1; Phe(4-(trans-4-COOH-cHex)) = N[C@@H](Cc1ccc([C@H]2CC[C@H](C(=O)O)CC2)cc1)C(=O)O; Phe(4-(cis-4-COOH-cHex)) = N[C@@H](Cc1ccc([C@H]2CC[C@@H](C(=O)O)CC2)cc1)C(=O)O; Trp(βS-Me,4-F) = C[C@@H](c1c[nH]c2cccc(F)c12)[C@H](N)C(=O)O; 3Aminoazetidine3carboxyl = O=C(C1(N[*:1])CN([*:3])C1)[*:2]; Bip(4'-COOH) = N[C@@H](Cc1ccc(-c2ccc(C(=O)O)cc2)cc1)C(=O)O; dPro(4R-Bzl(4-F)) = O=C(O)[C@H]1C[C@@H](Cc2ccc(F)cc2)CN1; Ala(pyrimidin-5-yl) = N[C@@H](Cc1cncnc1)C(=O)O; Phe(4-COOH) = N[C@@H](Cc1ccc(C(=O)O)cc1)C(=O)O; Pro(cis-4-F) = O=C(O)[C@@H]1C[C@H](F)CN1; 4Pal = N[C@@H](Cc1ccncc1)C(=O)O; αMeK = C[C@](N)(CCCCN)C(=O)O; Api = NC1(C(=O)O)CCNCC1; Dab = NCC[C@H](N)C(=O)O; Dap = NC[C@H](N)C(=O)O; Aib = CC(C)(N)C(=O)O

B1: SEQ ID NO: 63 (peptide)
peptide: cyclo([Bip(4'-COOH)][4Pal][Phe(4-COOH)]G[Pro(cis-4-F)][Trp(βS-Me,4-F)][Aib]EW[Aib][Ala(pyrimidin-5-yl)]Q[Dab]G[dProc3Bn4Im2NMe])
SMILES: C[C@@H](c1c[nH]c2cccc(F)c12)[C@@H]1NC(=O)[C@@H]2C[C@H](F)CN2C(=O)CNC(=O)[C@H](Cc2ccc(C(=O)O)cc2)NC(=O)[C@H](Cc2ccncc2)NC(=O)[C@H](Cc2ccc(-c3ccc(C(=O)O)cc3)cc2)NC(=O)[C@H]2[C@@H](Cc3ccc(-c4nccn4C)cc3)CCN2C(=O)CNC(=O)[C@H](CCN)NC(=O)[C@H](CCC(N)=O)NC(=O)[C@H](Cc2cncnc2)NC(=O)C(C)(C)NC(=O)[C@H](Cc2c[nH]c3ccccc23)NC(=O)[C@H](CCC(=O)O)NC(=O)C(C)(C)NC1=O
B2: SEQ ID NO: 64 (peptide)
peptide: cyclo([Bip(4'-COOH)][4Pal][Phe(4-COOH)]G[Pro(cis-4-F)][Trp(βS-Me,4-F)][Aib]EW[Aib][Ala(pyrimidin-5-yl)]Q[Dab]G[dProc3Bn4Im4NMe])
SMILES: C[C@@H](c1c[nH]c2cccc(F)c12)[C@@H]1NC(=O)[C@@H]2C[C@H](F)CN2C(=O)CNC(=O)[C@H](Cc2ccc(C(=O)O)cc2)NC(=O)[C@H](Cc2ccncc2)NC(=O)[C@H](Cc2ccc(-c3ccc(C(=O)O)cc3)cc2)NC(=O)[C@H]2[C@@H](Cc3ccc(-c4cn(C)cn4)cc3)CCN2C(=O)CNC(=O)[C@H](CCN)NC(=O)[C@H](CCC(N)=O)NC(=O)[C@H](Cc2cncnc2)NC(=O)C(C)(C)NC(=O)[C@H](Cc2c[nH]c3ccccc23)NC(=O)[C@H](CCC(=O)O)NC(=O)C(C)(C)NC1=O
B3: SEQ ID NO: 65 (peptide)
peptide: cyclo([Bip(4'-COOH)][4Pal][Phe(4-COOH)]G[Pro(cis-4-F)][Trp(βS-Me,4-F)][Aib]EW[Api][Ala(pyrimidin-5-yl)]Q[Dab]G[dPro(4R-Bzl(4-F))])
SMILES: C[C@@H](c1c[nH]c2cccc(F)c12)[C@@H]1NC(=O)[C@@H]2C[C@H](F)CN2C(=O)CNC(=O)[C@H](Cc2ccc(C(=O)O)cc2)NC(=O)[C@H](Cc2ccncc2)NC(=O)[C@H](Cc2ccc(-c3ccc(C(=O)O)cc3)cc2)NC(=O)[C@H]2C[C@@H](Cc3ccc(F)cc3)CN2C(=O)CNC(=O)[C@H](CCN)NC(=O)[C@H](CCC(N)=O)NC(=O)[C@H](Cc2cncnc2)NC(=O)C2(CCNCC2)NC(=O)[C@H](Cc2c[nH]c3ccccc23)NC(=O)[C@H](CCC(=O)O)NC(=O)C(C)(C)NC1=O
B4: SEQ ID NO: 66 (peptide)
peptide: cyclo([Bip(4'-COOH)][4Pal][Phe(4-COOH)]G[Pro(cis-4-F)][Trp(βS-Me,4-F)][αMeK]EW[Aib][Ala(pyrimidin-5-yl)]Q[Dab]G[dPro(4R-Bzl(4-F))])
SMILES: C[C@@H](c1c[nH]c2cccc(F)c12)[C@@H]1NC(=O)[C@@H]2C[C@H](F)CN2C(=O)CNC(=O)[C@H](Cc2ccc(C(=O)O)cc2)NC(=O)[C@H](Cc2ccncc2)NC(=O)[C@H](Cc2ccc(-c3ccc(C(=O)O)cc3)cc2)NC(=O)[C@H]2C[C@@H](Cc3ccc(F)cc3)CN2C(=O)CNC(=O)[C@H](CCN)NC(=O)[C@H](CCC(N)=O)NC(=O)[C@H](Cc2cncnc2)NC(=O)C(C)(C)NC(=O)[C@H](Cc2c[nH]c3ccccc23)NC(=O)[C@H](CCC(=O)O)NC(=O)[C@](C)(CCCCN)NC1=O
B5: SEQ ID NO: 68 (peptide)
peptide: cyclo([Phe(4-(trans-4-COOH-cHex))][4Pal][Phe(4-COOH)]G[Pro(cis-4-F)][Trp(βS-Me,4-F)][Aib]EW[3Aminoazetidine3carboxyl][Ala(pyrimidin-5-yl)]Q[Dab]G[dPro(4R-Bzl(4-F))])
SMILES: C[C@@H](c1c[nH]c2cccc(F)c12)[C@@H]1NC(=O)[C@@H]2C[C@H](F)CN2C(=O)CNC(=O)[C@H](Cc2ccc(C(=O)O)cc2)NC(=O)[C@H](Cc2ccncc2)NC(=O)[C@H](Cc2ccc([C@H]3CC[C@H](C(=O)O)CC3)cc2)NC(=O)[C@H]2C[C@@H](Cc3ccc(F)cc3)CN2C(=O)CNC(=O)[C@H](CCN)NC(=O)[C@H](CCC(N)=O)NC(=O)[C@H](Cc2cncnc2)NC(=O)C2(CNC2)NC(=O)[C@H](Cc2c[nH]c3ccccc23)NC(=O)[C@H](CCC(=O)O)NC(=O)C(C)(C)NC1=O
B6: SEQ ID NO: 69 (peptide)
peptide: cyclo([Phe(4-(cis-4-COOH-cHex))][4Pal][Phe(4-COOH)]G[Pro(cis-4-F)][Trp(βS-Me,4-F)][Aib]EW[3Aminoazetidine3carboxyl][Ala(pyrimidin-5-yl)]Q[Dab]G[dPro(4R-Bzl(4-F))])
SMILES: C[C@@H](c1c[nH]c2cccc(F)c12)[C@@H]1NC(=O)[C@@H]2C[C@H](F)CN2C(=O)CNC(=O)[C@H](Cc2ccc(C(=O)O)cc2)NC(=O)[C@H](Cc2ccncc2)NC(=O)[C@H](Cc2ccc([C@H]3CC[C@@H](C(=O)O)CC3)cc2)NC(=O)[C@H]2C[C@@H](Cc3ccc(F)cc3)CN2C(=O)CNC(=O)[C@H](CCN)NC(=O)[C@H](CCC(N)=O)NC(=O)[C@H](Cc2cncnc2)NC(=O)C2(CNC2)NC(=O)[C@H](Cc2c[nH]c3ccccc23)NC(=O)[C@H](CCC(=O)O)NC(=O)C(C)(C)NC1=O
B7: SEQ ID NO: 7 (peptide)
peptide: cyclo([Bip(4'-COOH)][4Pal][Phe(4-COOH)]G[Pro(cis-4-F)][Trp(βS-Me,4-F)][Aib]EW[Aib][Ala(pyrimidin-5-yl)]Q[Dap]G[dPro(4R-Bzl(4-F))])
SMILES: C[C@@H](c1c[nH]c2cccc(F)c12)[C@@H]1NC(=O)[C@@H]2C[C@H](F)CN2C(=O)CNC(=O)[C@H](Cc2ccc(C(=O)O)cc2)NC(=O)[C@H](Cc2ccncc2)NC(=O)[C@H](Cc2ccc(-c3ccc(C(=O)O)cc3)cc2)NC(=O)[C@H]2C[C@@H](Cc3ccc(F)cc3)CN2C(=O)CNC(=O)[C@H](CN)NC(=O)[C@H](CCC(N)=O)NC(=O)[C@H](Cc2cncnc2)NC(=O)C(C)(C)NC(=O)[C@H](Cc2c[nH]c3ccccc23)NC(=O)[C@H](CCC(=O)O)NC(=O)C(C)(C)NC1=O
B8: SEQ ID NO: 70 (peptide)
peptide: cyclo([TyrEtNAc][4Pal][Phe(4-COOH)][Pro(cis-4-F)][Trp(βS-Me,4-F)][Aib]EW[Aib][Ala(pyrimidin-5-yl)]Q[Dab]G[dProc3CH2Pyrim])
SMILES: CC(=O)NCCOc1ccc(C[C@@H]2NC(=O)[C@H]3[C@@H](Cc4cncnc4)CCN3C(=O)CNC(=O)[C@H](CCN)NC(=O)[C@H](CCC(N)=O)NC(=O)[C@H](Cc3cncnc3)NC(=O)C(C)(C)NC(=O)[C@H](Cc3c[nH]c4ccccc34)NC(=O)[C@H](CCC(=O)O)NC(=O)C(C)(C)NC(=O)[C@H]([C@@H](C)c3c[nH]c4cccc(F)c34)NC(=O)[C@@H]3C[C@H](F)CN3C(=O)[C@H](Cc3ccc(C(=O)O)cc3)NC(=O)[C@H](Cc3ccncc3)NC2=O)cc1

target: Recombinant human IL-1β (BioLegend 579404) (human, UniProt P01584 117-269); assay: cell-based or functional assay

| Binder | MRC5 IC50 [nM] |
| --- | --- |
| B1 | 0.018 |
| B2 | 0.014 |
| B3 | 0.025 |
| B4 | 0.028 |
| cyclo([Bip(4'-COOH)][4Pal][Phe(4-COOH)]G[Pro(cis-4-F)][Trp(βS-Me,4-F)][Aib]EW[αMeK][Ala(pyrimidin-5-yl)]Q[Dab]G[dPro(4R-Bzl(4-F))]) [SEQ ID NO: 67] | 0.021 |
| B5 | 0.029 |
| B6 | 0.03 |
| B7 | 0.026 |
| B8 | 0.081 |
